32 molecules from PMC6555819, “Comprehensive study of nuclear receptor DNA binding provides a revised framework for understanding receptor specificity” can be followed below.

B1: NRC3_wobSeed114_DR4_T18G_o1 (dsDNA)
DNA 1: GCAATACAGGGTCATCGGAGGCCAGAGTACGCACAGGCGATTGACAGCGTAGAATGAAGG
DNA 2: CCTTCATTCTACGCTGTCAATCGCCTGTGCGTACTCTGGCCTCCGATGACCCTGTATTGC
B2: NRC3_wobSeed100_DR4_A17T_o1 (dsDNA)
DNA 1: GCCCTACTGGGCCACGTAAGGTCATTGATTCAGTGAGCGATTGACAGCGTAGAATGAAGG
DNA 2: CCTTCATTCTACGCTGTCAATCGCTCACTGAATCAATGACCTTACGTGGCCCAGTAGGGC
B3: NRC3_wobSeed85_DR3_A16C_o1 (dsDNA)
DNA 1: GCCGTCCAAGGTCAGCGAGGTCAGTGAATGCCGAGTGCGATTGACAGCGTAGAATGAAGG
DNA 2: CCTTCATTCTACGCTGTCAATCGCACTCGGCATTCACTGACCTCGCTGACCTTGGACGGC
B4: NRC3_wobSeed110_DR4_T19A_o1 (dsDNA)
DNA 1: GCTCTGCTAGGTCAACGAAGGTCAGCTAATCTGCTAGCGATTGACAGCGTAGAATGAAGG
DNA 2: CCTTCATTCTACGCTGTCAATCGCTAGCAGATTAGCTGACCTTCGTTGACCTAGCAGAGC
B5: NRC3_wobSeed49_DR2_A15T_o1 (dsDNA)
DNA 1: GCCAAACTAGGTCATGAGGTCAAAGTCCGCTTCCCGGCGATTGACAGCGTAGAATGAAGG
DNA 2: CCTTCATTCTACGCTGTCAATCGCCGGGAAGCGGACTTTGACCTCATGACCTAGTTTGGC
B6: NRC3_wobSeed136_DR5_T12C_o1 (dsDNA)
DNA 1: GCTAGCCTAGGCCATTCAGGGGCCAGTATAGAAAGCGCGATTGACAGCGTAGAATGAAGG
DNA 2: CCTTCATTCTACGCTGTCAATCGCGCTTTCTATACTGGCCCCTGAATGGCCTAGGCTAGC
B7: NRC3_wobSeed138_DR5_T12G_o1 (dsDNA)
DNA 1: GCGATACAGGGGCAGCTAGAGGCCAGAGTATGGAAAGCGATTGACAGCGTAGAATGAAGG
DNA 2: CCTTCATTCTACGCTGTCAATCGCTTTCCATACTCTGGCCTCTAGCTGCCCCTGTATCGC
B8: NRC3_wobSeed111_DR4_G11A_o1 (dsDNA)
DNA 1: GCCGAACTAGATCAGAACAGGACAGTGAAGGATGATGCGATTGACAGCGTAGAATGAAGG
DNA 2: CCTTCATTCTACGCTGTCAATCGCATCATCCTTCACTGTCCTGTTCTGATCTAGTTCGGC
B9: NRC3_wobSeed103_DR4_A13T_o1 (dsDNA)
DNA 1: GCGCATATAGGTTATACAAGGTGAAAGTCCGATTGTGCGATTGACAGCGTAGAATGAAGG
DNA 2: CCTTCATTCTACGCTGTCAATCGCACAATCGGACTTTCACCTTGTATAACCTATATGCGC
B10: NRC3_wobSeed103_DR4_G21A_o1 (dsDNA)
DNA 1: GCGCATATAGGTAATACAAGATGAAAGTCCGATTGTGCGATTGACAGCGTAGAATGAAGG
DNA 2: CCTTCATTCTACGCTGTCAATCGCACAATCGGACTTTCATCTTGTATTACCTATATGCGC
B11: NRC3_wobSeed103_DR4_A16T_o1 (dsDNA)
DNA 1: GCGCATATAGGTAATTCAAGGTGAAAGTCCGATTGTGCGATTGACAGCGTAGAATGAAGG
DNA 2: CCTTCATTCTACGCTGTCAATCGCACAATCGGACTTTCACCTTGAATTACCTATATGCGC
B12: NRC3_wobSeed121_DR5_T8C_o1 (dsDNA)
DNA 1: GCCAAACCAGGTCACCGGAAGGTCAAAGTCCGCATGGCGATTGACAGCGTAGAATGAAGG
DNA 2: CCTTCATTCTACGCTGTCAATCGCCATGCGGACTTTGACCTTCCGGTGACCTGGTTTGGC
B13: NRC3_wobSeed2_DR0_G16C_o1 (dsDNA)
DNA 1: GCCCTAGTTGGTCAACGTCACACACGCTATAGGTACGCGATTGACAGCGTAGAATGAAGG
DNA 2: CCTTCATTCTACGCTGTCAATCGCGTACCTATAGCGTGTGTGACGTTGACCAACTAGGGC
B14: NRC3_wobSeed120_DR4_A17T_o1 (dsDNA)
DNA 1: GCCCGAGTAGGTTACGTGGGGGCATTCAGTGCGAATGCGATTGACAGCGTAGAATGAAGG
DNA 2: CCTTCATTCTACGCTGTCAATCGCATTCGCACTGAATGCCCCCACGTAACCTACTCGGGC
B15: NRC3_wobSeed73_DR3_A16T_o1 (dsDNA)
DNA 1: GCCAAACTAGGTCACTGAGGTCAAAGTCCGTGCGTAGCGATTGACAGCGTAGAATGAAGG
DNA 2: CCTTCATTCTACGCTGTCAATCGCTACGCACGGACTTTGACCTCAGTGACCTAGTTTGGC
B16: NRC3_wobSeed112_DR4_C22T_o1 (dsDNA)
DNA 1: GCTAGCCTAGGTCAGATCGGGTCAGTATACGCTATAGCGATTGACAGCGTAGAATGAAGG
DNA 2: CCTTCATTCTACGCTGTCAATCGCTATAGCGTATACTGACCCGATCTGACCTAGGCTAGC
B17: NRC3_wobSeed112_DR4_T8G_o1 (dsDNA)
DNA 1: GCTAGCCGAGGTCAGATCGGGCCAGTATACGCTATAGCGATTGACAGCGTAGAATGAAGG
DNA 2: CCTTCATTCTACGCTGTCAATCGCTATAGCGTATACTGGCCCGATCTGACCTCGGCTAGC
B18: NRC3_wobSeed17_DR0_G16A_o1 (dsDNA)
DNA 1: GCATATGTAGGTTAGAGTCATTCAGAAAGTAGGGAAGCGATTGACAGCGTAGAATGAAGG
DNA 2: CCTTCATTCTACGCTGTCAATCGCTTCCCTACTTTCTGAATGACTCTAACCTACATATGC
B19: NRC3_wobSeed15_DR0_C13A_o1 (dsDNA)
DNA 1: GCCGAACTAGGTAAAGGACAGTGAATCTCCGCACGCGCGATTGACAGCGTAGAATGAAGG
DNA 2: CCTTCATTCTACGCTGTCAATCGCGCGTGCGGAGATTCACTGTCCTTTACCTAGTTCGGC
B20: NRC3_wobSeed102_DR4_C12T_o1 (dsDNA)
DNA 1: GCCCTAGCAGGTCAATCTGGGTCACTCAAGGCTTGAGCGATTGACAGCGTAGAATGAAGG
DNA 2: CCTTCATTCTACGCTGTCAATCGCTCAAGCCTTGAGTGACCCAGATTGACCTGCTAGGGC
B21: NRC3_wobSeed102_DR4_G21A_o1 (dsDNA)
DNA 1: GCCCTAGCAGGCCAATCTGGATCACTCAAGGCTTGAGCGATTGACAGCGTAGAATGAAGG
DNA 2: CCTTCATTCTACGCTGTCAATCGCTCAAGCCTTGAGTGATCCAGATTGGCCTGCTAGGGC
B22: NRC3_wobSeed52_DR2_C21G_o1 (dsDNA)
DNA 1: GCCCTACTGGGCCATCAGGTGATTGATATCAACGTTGCGATTGACAGCGTAGAATGAAGG
DNA 2: CCTTCATTCTACGCTGTCAATCGCAACGTTGATATCAATCACCTGATGGCCCAGTAGGGC
B23: NRC3_wobSeed108_DR4_T23C_o1 (dsDNA)
DNA 1: GCGCGACTGGGGCAAAGCAGGTCACCATAAGGTTGGGCGATTGACAGCGTAGAATGAAGG
DNA 2: CCTTCATTCTACGCTGTCAATCGCCCAACCTTATGGTGACCTGCTTTGCCCCAGTCGCGC
B24: NRC3_wobSeed27_DR1_G18A_o1 (dsDNA)
DNA 1: GCACTCGGAGGACAAAGATCAGAGCTACGCCAGTGAGCGATTGACAGCGTAGAATGAAGG
DNA 2: CCTTCATTCTACGCTGTCAATCGCTCACTGGCGTAGCTCTGATCTTTGTCCTCCGAGTGC
B25: NRC3_wobSeed119_DR4_T21G_o1 (dsDNA)
DNA 1: GCGGAACGAGGGCATTCGAGGTGATAGCATGGCGATGCGATTGACAGCGTAGAATGAAGG
DNA 2: CCTTCATTCTACGCTGTCAATCGCATCGCCATGCTATCACCTCGAATGCCCTCGTTCCGC
B26: NRC3_wobSeed119_DR4_A9T_o1 (dsDNA)
DNA 1: GCGGAACGTGGGCATTCGAGTTGATAGCATGGCGATGCGATTGACAGCGTAGAATGAAGG
DNA 2: CCTTCATTCTACGCTGTCAATCGCATCGCCATGCTATCAACTCGAATGCCCACGTTCCGC
B27: NRC3_wobSeed118_DR4_G15C_o1 (dsDNA)
DNA 1: GCTTACCAAGGTGACCTGAGGTCGTTGATCCAACTCGCGATTGACAGCGTAGAATGAAGG
DNA 2: CCTTCATTCTACGCTGTCAATCGCGAGTTGGATCAACGACCTCAGGTCACCTTGGTAAGC
B28: NRC3_wobSeed118_DR4_A8G_o1 (dsDNA)
DNA 1: GCTTACCGAGGTGAGCTGAGGTCGTTGATCCAACTCGCGATTGACAGCGTAGAATGAAGG
DNA 2: CCTTCATTCTACGCTGTCAATCGCGAGTTGGATCAACGACCTCAGCTCACCTCGGTAAGC
B29: NRC3_wobSeed37_DR1_A25G_o1 (dsDNA)
DNA 1: GCCGTCCAAGGTCAAAGGTCAGTGGAGAGATGACGGGCGATTGACAGCGTAGAATGAAGG
DNA 2: CCTTCATTCTACGCTGTCAATCGCCCGTCATCTCTCCACTGACCTTTGACCTTGGACGGC
B30: NRC3_wobSeed122_DR5_C24A_o1 (dsDNA)
DNA 1: GCGCTAGTTGGTCAGTAAAAGGTAACACACCGGTCGGCGATTGACAGCGTAGAATGAAGG
DNA 2: CCTTCATTCTACGCTGTCAATCGCCGACCGGTGTGTTACCTTTTACTGACCAACTAGCGC
B31: NRC3_wobSeed130_DR5_G24C_o1 (dsDNA)
DNA 1: GCCTCGAAAGGTCGTGCTCAGGTCAGTATACCAAACGCGATTGACAGCGTAGAATGAAGG
DNA 2: CCTTCATTCTACGCTGTCAATCGCGTTTGGTATACTGACCTGAGCACGACCTTTCGAGGC
B32: NRC3_wobSeed72_DR2_G18C_o1 (dsDNA)
DNA 1: GCTCGAGTAGGTTACGGCGGCATTCAGGGATGAAGAGCGATTGACAGCGTAGAATGAAGG
DNA 2: CCTTCATTCTACGCTGTCAATCGCTCTTCATCCCTGAATGCCGCCGTAACCTACTCGAGC

The series deals with THRa:RXRa (Homo sapiens, UniProt P10827;P19793 full;full). Nature of the series: no ligand; PBM; 90 nM : 90 nM RXRa; PBS pH 7.4, 2% milk, 0.02% Triton X-100, 1 mM DTT, BSA, 0.4 mg/ml salmon testes DNA. The note with it: tags: His kept;His cleaved; copies: 1;1; label: surface-attached array probe.
THRa:RXRa, sequence (P10827 other isoform, or with tags, fused parts or gaps, chain 1 of 2): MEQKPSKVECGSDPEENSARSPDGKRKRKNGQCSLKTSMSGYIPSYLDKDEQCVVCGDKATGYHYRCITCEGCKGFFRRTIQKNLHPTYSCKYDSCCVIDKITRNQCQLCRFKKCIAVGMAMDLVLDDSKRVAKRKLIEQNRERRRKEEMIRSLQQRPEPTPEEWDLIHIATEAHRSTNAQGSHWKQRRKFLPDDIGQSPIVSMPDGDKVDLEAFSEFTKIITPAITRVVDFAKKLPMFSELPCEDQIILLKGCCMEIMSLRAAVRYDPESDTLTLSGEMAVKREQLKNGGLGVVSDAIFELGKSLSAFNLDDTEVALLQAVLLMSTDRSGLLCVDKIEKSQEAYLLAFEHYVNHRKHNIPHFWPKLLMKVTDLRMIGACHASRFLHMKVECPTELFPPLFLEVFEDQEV
THRa:RXRa, sequence (P19793 whole entry, chain 2 of 2): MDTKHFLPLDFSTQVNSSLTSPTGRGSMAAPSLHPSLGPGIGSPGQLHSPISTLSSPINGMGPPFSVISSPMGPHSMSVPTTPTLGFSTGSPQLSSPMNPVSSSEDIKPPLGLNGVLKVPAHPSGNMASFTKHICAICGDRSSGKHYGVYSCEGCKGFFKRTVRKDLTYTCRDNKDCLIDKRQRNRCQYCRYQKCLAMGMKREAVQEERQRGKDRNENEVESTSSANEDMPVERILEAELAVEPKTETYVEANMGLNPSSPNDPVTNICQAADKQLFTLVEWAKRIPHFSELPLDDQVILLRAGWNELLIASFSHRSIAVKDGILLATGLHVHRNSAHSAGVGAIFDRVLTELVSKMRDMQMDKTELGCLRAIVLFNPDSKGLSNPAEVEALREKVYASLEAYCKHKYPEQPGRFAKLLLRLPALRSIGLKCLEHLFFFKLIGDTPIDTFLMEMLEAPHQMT
As to B1, the binding signal is 5.17 PBM z-score against 500 random probes. The same measure for B2: 4.98 PBM z-score against 500 random probes; for B3: 4.81 PBM z-score against 500 random probes. As for B4, the binding signal was 5.01 PBM z-score against 500 random probes. Turning to B5, the binding signal is 4.8 PBM z-score against 500 random probes. The same measure for B6: 0.47 PBM z-score against 500 random probes; for B7: 0.48 PBM z-score against 500 random probes. The same measure for B8: 0.34 PBM z-score against 500 random probes; for B9: 5.07 PBM z-score against 500 random probes; for B10: 0.11 PBM z-score against 500 random probes. The same measure for B11: 4.81 PBM z-score against 500 random probes. Take B12: the binding signal is 4.95 PBM z-score against 500 random probes.

For the molecule B13, the binding signal was 0.39 PBM z-score against 500 random probes. For the molecule B14, the binding signal is 4.87 PBM z-score against 500 random probes. The same measure for B15: 5.07 PBM z-score against 500 random probes; for B16: 5.04 PBM z-score against 500 random probes.

As for B17, the binding signal is 4.92 PBM z-score against 500 random probes.

Consider B18, for which the binding signal was 0.23 PBM z-score against 500 random probes.

Turning to B19, the binding signal is 0.15 PBM z-score against 500 random probes. The figure for B20 is 5.18 PBM z-score against 500 random probes; for B21 it is 0.26 PBM z-score against 500 random probes. The same measure for B22: 0.39 PBM z-score against 500 random probes; for B23: 4.79 PBM z-score against 500 random probes. The figure for B24 is 0.36 PBM z-score against 500 random probes. Take B25: the binding signal was 5.22 PBM z-score against 500 random probes. The same measure for B26: 0.25 PBM z-score against 500 random probes; for B27: 5.05 PBM z-score against 500 random probes; for B28: 5.02 PBM z-score against 500 random probes. Take B29: the binding signal is 5.12 PBM z-score against 500 random probes. The same measure for B30: 0.45 PBM z-score against 500 random probes; for B31: 4.84 PBM z-score against 500 random probes; for B32: 0.41 PBM z-score against 500 random probes.
